{"source": "paper PMC5518672", "about": "(Nature structural & molecular biology, 2013)", "key": {"SEC [1]": {"molecular_target": "the molecule itself", "assay": "SEC"}, "SEC [2]": {"molecular_target": "the molecule itself", "assay": "SEC", "remark": "listed apart in the source"}, "SEC-MALS": {"molecular_target": "the molecule itself", "assay": "SEC-MALS"}}, "data": [{"protein": "recombinant full-length Aplysia CPEB (His6-CPEB fusion protein) (natural protein) not shown", "values": [{"measurement": "stoichiometry N", "setting": "SEC [1]", "value": "> 10"}, {"measurement": "stoichiometry N", "setting": "SEC [2]", "value": "≥ 10"}, {"measurement": "stoichiometry N", "setting": "SEC-MALS", "value": 3}]}]}
